The target in this assay is T1, human CD30 (TNFRSF8), recombinant (human, UniProt P28908).
T1 chain: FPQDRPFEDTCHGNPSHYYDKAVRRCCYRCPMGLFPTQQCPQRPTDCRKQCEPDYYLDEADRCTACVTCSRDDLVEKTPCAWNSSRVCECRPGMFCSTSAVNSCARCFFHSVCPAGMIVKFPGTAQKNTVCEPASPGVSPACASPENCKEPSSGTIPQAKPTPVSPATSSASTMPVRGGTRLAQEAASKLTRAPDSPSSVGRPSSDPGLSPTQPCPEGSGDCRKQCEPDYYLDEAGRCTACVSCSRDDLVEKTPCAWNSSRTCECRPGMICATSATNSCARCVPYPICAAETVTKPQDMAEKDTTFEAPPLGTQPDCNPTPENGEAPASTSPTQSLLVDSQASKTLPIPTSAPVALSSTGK
In words: SPR. Background: In SPR one partner is held on a chip, and binding of the other changes the refractive index at the surface.

Where “and” joins values, the source holds several entries; their conditions need not be identical. Equal entries are not always repeated.

For orientation: Kd means the concentration at which binding is half-saturated.

B1: HuMab 5F11 (antibody, V domains shown)
VH: QVQLQQWGAGLLKPSETLSLTCAVYGGSFSAYYWSWIRQPPGKGLEWIGDINHGGGTNYNPSLKSRVTISVDTSKNQFSLKLNSVTAADTAVYYCASLTAYWGQGSLVTVSS
VL: DIQMTQSPTSLSASVGDRVTITCRASQGISSWLTWYQQKPEKAPKSLIYAASSLQSGVPSRFSGSGSGTDFTLTISSLQPEDFATYYCQQYDSYPITFGQGTRLEIK
Take B1: the Kd is 1.12 nM and 1.14 nM and 1.23 nM and 1.36 nM.

Values taken from patent US20100322920 (published 2010).
